In patent publication US20130115677 one finds activity (fidelity index) data, which are given here for one substance.

Assay in all cases: cleavage_in_vitro
Data set [1] concerns the target T1, PstI (Providencia stuartii 164) (UniProt P00640).
T1 sequence: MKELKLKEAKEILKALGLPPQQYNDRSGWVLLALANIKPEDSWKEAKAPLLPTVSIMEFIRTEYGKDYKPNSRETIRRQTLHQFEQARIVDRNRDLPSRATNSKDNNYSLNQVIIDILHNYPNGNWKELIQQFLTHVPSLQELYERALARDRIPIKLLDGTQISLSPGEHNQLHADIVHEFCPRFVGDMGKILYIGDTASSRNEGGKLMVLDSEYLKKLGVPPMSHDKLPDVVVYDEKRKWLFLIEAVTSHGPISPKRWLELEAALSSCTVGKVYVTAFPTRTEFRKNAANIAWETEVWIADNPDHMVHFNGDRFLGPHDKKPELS
The following applies: NEB4, 37 C, Mg2+.

The test system of data set [2] is T2, NcoI (Nocardia corallina).
T2 sequence: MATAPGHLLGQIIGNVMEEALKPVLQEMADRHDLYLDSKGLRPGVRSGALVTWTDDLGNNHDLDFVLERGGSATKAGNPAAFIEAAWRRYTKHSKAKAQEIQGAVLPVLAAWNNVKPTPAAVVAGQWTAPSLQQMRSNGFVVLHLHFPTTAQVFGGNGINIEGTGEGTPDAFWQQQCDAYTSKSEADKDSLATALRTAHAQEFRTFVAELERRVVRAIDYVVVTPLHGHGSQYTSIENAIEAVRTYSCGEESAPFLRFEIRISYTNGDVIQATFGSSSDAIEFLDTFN
The note with it: NEB4, 37 C, Mg2+.

For data set [3], the target named is EcoRI (Escherichia coli RY13) (UniProt P00642). The following applies: NEB4, 37 C, Mg2+; 250 in NEB1 and NEB3.
Data set [4] concerns T3, BspQI (Bacillus sphaericus).
T3 sequence: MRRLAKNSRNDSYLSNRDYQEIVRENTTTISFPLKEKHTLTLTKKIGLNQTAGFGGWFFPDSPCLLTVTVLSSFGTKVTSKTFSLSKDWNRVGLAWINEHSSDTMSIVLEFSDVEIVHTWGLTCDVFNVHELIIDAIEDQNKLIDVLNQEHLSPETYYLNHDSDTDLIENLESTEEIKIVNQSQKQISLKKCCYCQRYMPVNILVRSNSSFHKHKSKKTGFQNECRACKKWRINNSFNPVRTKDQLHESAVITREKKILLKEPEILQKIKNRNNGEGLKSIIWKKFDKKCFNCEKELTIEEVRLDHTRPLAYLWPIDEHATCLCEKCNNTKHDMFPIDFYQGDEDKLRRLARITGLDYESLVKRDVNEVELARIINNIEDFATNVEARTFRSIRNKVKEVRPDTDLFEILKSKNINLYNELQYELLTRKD
The following applies: NEB4, 50 C, Mg2+.

Turning to lambda DNA, the activity (fidelity index) in data set [1] amounted to 8; in data set [2] it was 32; in data set [3], 4; in data set [4] it was 4.
